# Source: US20180009871A1 (INTARCIA THERAPEUTICS, published 2018)
# Where no end group is shown, it is not given here. [ ]: non-standard residue; d: D form. Aib = CC(C)(N)C(=O)O
# B1: Compound A10 (peptide)
# peptide: YSHGTFTSDYSKYLD[Aib]KRAQEFV[Aib]WLEDEEPSSGAPPPS-OH
# modifications: N-terminus assumed
# SMILES: CC(C)C[C@H](NC(=O)[C@H](Cc1ccc(O)cc1)NC(=O)[C@H](CCCCN)NC(=O)[C@H](CO)NC(=O)[C@H](Cc1ccc(O)cc1)NC(=O)[C@H](CC(=O)O)NC(=O)[C@H](CO)NC(=O)[C@@H](NC(=O)[C@H](Cc1ccccc1)NC(=O)[C@@H](NC(=O)CNC(=O)[C@H](Cc1c[nH]cn1)NC(=O)[C@H](CO)NC(=O)[C@@H](N)Cc1ccc(O)cc1)[C@@H](C)O)[C@@H](C)O)C(=O)N[C@@H](CC(=O)O)C(=O)NC(C)(C)C(=O)N[C@@H](CCCCN)C(=O)N[C@@H](CCCNC(=N)N)C(=O)N[C@@H](C)C(=O)N[C@@H](CCC(N)=O)C(=O)N[C@@H](CCC(=O)O)C(=O)N[C@@H](Cc1ccccc1)C(=O)N[C@H](C(=O)NC(C)(C)C(=O)N[C@@H](Cc1c[nH]c2ccccc12)C(=O)N[C@@H](CC(C)C)C(=O)N[C@@H](CCC(=O)O)C(=O)N[C@@H](CC(=O)O)C(=O)N[C@@H](CCC(=O)O)C(=O)N[C@@H](CCC(=O)O)C(=O)N1CCC[C@H]1C(=O)N[C@@H](CO)C(=O)N[C@@H](CO)C(=O)NCC(=O)N[C@@H](C)C(=O)N1CCC[C@H]1C(=O)N1CCC[C@H]1C(=O)N1CCC[C@H]1C(=O)N[C@@H](CO)C(=O)O)C(C)C
# B2: Compound A7 (peptide)
# peptide: YSHGTFTSDYSKYLD[Aib]ARAQEFV[Aib]WLEDEPSSGAPPPS-OH
# modifications: N-terminus assumed
# SMILES: CC(C)C[C@H](NC(=O)[C@H](Cc1ccc(O)cc1)NC(=O)[C@H](CCCCN)NC(=O)[C@H](CO)NC(=O)[C@H](Cc1ccc(O)cc1)NC(=O)[C@H](CC(=O)O)NC(=O)[C@H](CO)NC(=O)[C@@H](NC(=O)[C@H](Cc1ccccc1)NC(=O)[C@@H](NC(=O)CNC(=O)[C@H](Cc1c[nH]cn1)NC(=O)[C@H](CO)NC(=O)[C@@H](N)Cc1ccc(O)cc1)[C@@H](C)O)[C@@H](C)O)C(=O)N[C@@H](CC(=O)O)C(=O)NC(C)(C)C(=O)N[C@@H](C)C(=O)N[C@@H](CCCNC(=N)N)C(=O)N[C@@H](C)C(=O)N[C@@H](CCC(N)=O)C(=O)N[C@@H](CCC(=O)O)C(=O)N[C@@H](Cc1ccccc1)C(=O)N[C@H](C(=O)NC(C)(C)C(=O)N[C@@H](Cc1c[nH]c2ccccc12)C(=O)N[C@@H](CC(C)C)C(=O)N[C@@H](CCC(=O)O)C(=O)N[C@@H](CC(=O)O)C(=O)N[C@@H](CCC(=O)O)C(=O)N1CCC[C@H]1C(=O)N[C@@H](CO)C(=O)N[C@@H](CO)C(=O)NCC(=O)N[C@@H](C)C(=O)N1CCC[C@H]1C(=O)N1CCC[C@H]1C(=O)N1CCC[C@H]1C(=O)N[C@@H](CO)C(=O)O)C(C)C
# B3: Compound A8 (peptide)
# peptide: YSHGTFTSDYSKYLD[Aib]KRAQEFV[Aib]WLEDEPSSGAPPPS-NH2
# modifications: N-terminus assumed
# SMILES: CC(C)C[C@H](NC(=O)[C@H](Cc1ccc(O)cc1)NC(=O)[C@H](CCCCN)NC(=O)[C@H](CO)NC(=O)[C@H](Cc1ccc(O)cc1)NC(=O)[C@H](CC(=O)O)NC(=O)[C@H](CO)NC(=O)[C@@H](NC(=O)[C@H](Cc1ccccc1)NC(=O)[C@@H](NC(=O)CNC(=O)[C@H](Cc1c[nH]cn1)NC(=O)[C@H](CO)NC(=O)[C@@H](N)Cc1ccc(O)cc1)[C@@H](C)O)[C@@H](C)O)C(=O)N[C@@H](CC(=O)O)C(=O)NC(C)(C)C(=O)N[C@@H](CCCCN)C(=O)N[C@@H](CCCNC(=N)N)C(=O)N[C@@H](C)C(=O)N[C@@H](CCC(N)=O)C(=O)N[C@@H](CCC(=O)O)C(=O)N[C@@H](Cc1ccccc1)C(=O)N[C@H](C(=O)NC(C)(C)C(=O)N[C@@H](Cc1c[nH]c2ccccc12)C(=O)N[C@@H](CC(C)C)C(=O)N[C@@H](CCC(=O)O)C(=O)N[C@@H](CC(=O)O)C(=O)N[C@@H](CCC(=O)O)C(=O)N1CCC[C@H]1C(=O)N[C@@H](CO)C(=O)N[C@@H](CO)C(=O)NCC(=O)N[C@@H](C)C(=O)N1CCC[C@H]1C(=O)N1CCC[C@H]1C(=O)N1CCC[C@H]1C(=O)N[C@@H](CO)C(N)=O)C(C)C
# B4: Compound A6 (peptide)
# peptide: WSQGTFTSDYSKYLD[Aib]KRAQEFV[Aib]WLEDEPSSGAPPPS-OH
# modifications: N-terminus assumed
# SMILES: CC(C)C[C@H](NC(=O)[C@H](Cc1ccc(O)cc1)NC(=O)[C@H](CCCCN)NC(=O)[C@H](CO)NC(=O)[C@H](Cc1ccc(O)cc1)NC(=O)[C@H](CC(=O)O)NC(=O)[C@H](CO)NC(=O)[C@@H](NC(=O)[C@H](Cc1ccccc1)NC(=O)[C@@H](NC(=O)CNC(=O)[C@H](CCC(N)=O)NC(=O)[C@H](CO)NC(=O)[C@@H](N)Cc1c[nH]c2ccccc12)[C@@H](C)O)[C@@H](C)O)C(=O)N[C@@H](CC(=O)O)C(=O)NC(C)(C)C(=O)N[C@@H](CCCCN)C(=O)N[C@@H](CCCNC(=N)N)C(=O)N[C@@H](C)C(=O)N[C@@H](CCC(N)=O)C(=O)N[C@@H](CCC(=O)O)C(=O)N[C@@H](Cc1ccccc1)C(=O)N[C@H](C(=O)NC(C)(C)C(=O)N[C@@H](Cc1c[nH]c2ccccc12)C(=O)N[C@@H](CC(C)C)C(=O)N[C@@H](CCC(=O)O)C(=O)N[C@@H](CC(=O)O)C(=O)N[C@@H](CCC(=O)O)C(=O)N1CCC[C@H]1C(=O)N[C@@H](CO)C(=O)N[C@@H](CO)C(=O)NCC(=O)N[C@@H](C)C(=O)N1CCC[C@H]1C(=O)N1CCC[C@H]1C(=O)N1CCC[C@H]1C(=O)N[C@@H](CO)C(=O)O)C(C)C
# B5: Compound A12 (peptide)
# peptide: YSHGTFTSDYSKYLD[Aib]KRAQEFV[Aib]WLEDEGAPPPS-OH
# modifications: N-terminus assumed
# SMILES: CC(C)C[C@H](NC(=O)[C@H](Cc1ccc(O)cc1)NC(=O)[C@H](CCCCN)NC(=O)[C@H](CO)NC(=O)[C@H](Cc1ccc(O)cc1)NC(=O)[C@H](CC(=O)O)NC(=O)[C@H](CO)NC(=O)[C@@H](NC(=O)[C@H](Cc1ccccc1)NC(=O)[C@@H](NC(=O)CNC(=O)[C@H](Cc1c[nH]cn1)NC(=O)[C@H](CO)NC(=O)[C@@H](N)Cc1ccc(O)cc1)[C@@H](C)O)[C@@H](C)O)C(=O)N[C@@H](CC(=O)O)C(=O)NC(C)(C)C(=O)N[C@@H](CCCCN)C(=O)N[C@@H](CCCNC(=N)N)C(=O)N[C@@H](C)C(=O)N[C@@H](CCC(N)=O)C(=O)N[C@@H](CCC(=O)O)C(=O)N[C@@H](Cc1ccccc1)C(=O)N[C@H](C(=O)NC(C)(C)C(=O)N[C@@H](Cc1c[nH]c2ccccc12)C(=O)N[C@@H](CC(C)C)C(=O)N[C@@H](CCC(=O)O)C(=O)N[C@@H](CC(=O)O)C(=O)N[C@@H](CCC(=O)O)C(=O)NCC(=O)N[C@@H](C)C(=O)N1CCC[C@H]1C(=O)N1CCC[C@H]1C(=O)N1CCC[C@H]1C(=O)N[C@@H](CO)C(=O)O)C(C)C
# B6: Compound A9 (peptide)
# peptide: YSHGTFTSDYSKYLD[Aib]KRAQEFV[Aib]WLEEEPSSGAPPPS-OH
# modifications: N-terminus assumed
# SMILES: CC(C)C[C@H](NC(=O)[C@H](Cc1ccc(O)cc1)NC(=O)[C@H](CCCCN)NC(=O)[C@H](CO)NC(=O)[C@H](Cc1ccc(O)cc1)NC(=O)[C@H](CC(=O)O)NC(=O)[C@H](CO)NC(=O)[C@@H](NC(=O)[C@H](Cc1ccccc1)NC(=O)[C@@H](NC(=O)CNC(=O)[C@H](Cc1c[nH]cn1)NC(=O)[C@H](CO)NC(=O)[C@@H](N)Cc1ccc(O)cc1)[C@@H](C)O)[C@@H](C)O)C(=O)N[C@@H](CC(=O)O)C(=O)NC(C)(C)C(=O)N[C@@H](CCCCN)C(=O)N[C@@H](CCCNC(=N)N)C(=O)N[C@@H](C)C(=O)N[C@@H](CCC(N)=O)C(=O)N[C@@H](CCC(=O)O)C(=O)N[C@@H](Cc1ccccc1)C(=O)N[C@H](C(=O)NC(C)(C)C(=O)N[C@@H](Cc1c[nH]c2ccccc12)C(=O)N[C@@H](CC(C)C)C(=O)N[C@@H](CCC(=O)O)C(=O)N[C@@H](CCC(=O)O)C(=O)N[C@@H](CCC(=O)O)C(=O)N1CCC[C@H]1C(=O)N[C@@H](CO)C(=O)N[C@@H](CO)C(=O)NCC(=O)N[C@@H](C)C(=O)N1CCC[C@H]1C(=O)N1CCC[C@H]1C(=O)N1CCC[C@H]1C(=O)N[C@@H](CO)C(=O)O)C(C)C
# B7: Compound A11 (peptide)
# peptide: YSHGTFTSDYSKYLD[Aib]KRAQEFV[Aib]WLEDEEEPSSGAPPPS-OH
# modifications: N-terminus assumed
# SMILES: CC(C)C[C@H](NC(=O)[C@H](Cc1ccc(O)cc1)NC(=O)[C@H](CCCCN)NC(=O)[C@H](CO)NC(=O)[C@H](Cc1ccc(O)cc1)NC(=O)[C@H](CC(=O)O)NC(=O)[C@H](CO)NC(=O)[C@@H](NC(=O)[C@H](Cc1ccccc1)NC(=O)[C@@H](NC(=O)CNC(=O)[C@H](Cc1c[nH]cn1)NC(=O)[C@H](CO)NC(=O)[C@@H](N)Cc1ccc(O)cc1)[C@@H](C)O)[C@@H](C)O)C(=O)N[C@@H](CC(=O)O)C(=O)NC(C)(C)C(=O)N[C@@H](CCCCN)C(=O)N[C@@H](CCCNC(=N)N)C(=O)N[C@@H](C)C(=O)N[C@@H](CCC(N)=O)C(=O)N[C@@H](CCC(=O)O)C(=O)N[C@@H](Cc1ccccc1)C(=O)N[C@H](C(=O)NC(C)(C)C(=O)N[C@@H](Cc1c[nH]c2ccccc12)C(=O)N[C@@H](CC(C)C)C(=O)N[C@@H](CCC(=O)O)C(=O)N[C@@H](CC(=O)O)C(=O)N[C@@H](CCC(=O)O)C(=O)N[C@@H](CCC(=O)O)C(=O)N[C@@H](CCC(=O)O)C(=O)N1CCC[C@H]1C(=O)N[C@@H](CO)C(=O)N[C@@H](CO)C(=O)NCC(=O)N[C@@H](C)C(=O)N1CCC[C@H]1C(=O)N1CCC[C@H]1C(=O)N1CCC[C@H]1C(=O)N[C@@H](CO)C(=O)O)C(C)C
# Target: human glucagon receptor (GCGR) (human, UniProt P47871 26-477)
# Test: cell-based or functional assay
row,Binder,hGCGR pEC50 (cAMP) [pEC50]
1,B1,11.3
2,B2,11.9
3,B3,12.3
4,B4,11.7
5,B5,13.2
6,B6,13
7,B7,11.2

# Target: human GLP-1 receptor (GLP-1R) (human, UniProt P43220 24-463)
# Sequence (P43220 24-463): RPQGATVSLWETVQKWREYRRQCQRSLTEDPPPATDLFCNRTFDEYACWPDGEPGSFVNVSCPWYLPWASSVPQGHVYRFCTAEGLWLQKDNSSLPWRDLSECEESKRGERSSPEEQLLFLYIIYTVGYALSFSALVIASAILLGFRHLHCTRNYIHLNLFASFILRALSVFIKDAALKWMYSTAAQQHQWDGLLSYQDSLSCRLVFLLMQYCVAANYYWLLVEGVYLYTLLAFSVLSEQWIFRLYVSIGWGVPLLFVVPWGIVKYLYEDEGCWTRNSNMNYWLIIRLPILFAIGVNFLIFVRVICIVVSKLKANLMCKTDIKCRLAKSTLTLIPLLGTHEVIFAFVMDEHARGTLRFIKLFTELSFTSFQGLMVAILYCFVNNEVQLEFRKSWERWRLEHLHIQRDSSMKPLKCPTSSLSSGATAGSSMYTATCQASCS
# Test: cell-based or functional assay
row,Binder,hGLP1 pEC50 (cAMP) [pEC50]
1,B1,< 9
2,B2,< 9
3,B3,< 9
4,B4,5.3
5,B5,< 9
6,B6,< 9
7,B7,< 9
